From the DeepSol protein solubility set come the findings set out here.

A short description of the data set: soluble on expression in E. coli; label from the status in PepcDB or PDB records.
As to “MNFVTLTSDEFNAFTTKHFSHYTQSAIHYNHRVDLKGDVHLVGVKDDNGQVIAGCLLTEARTLKFFKYFYTHRGPVMDYTNQSLVAFFFKALTSYLKKHNCLYVLVDPYLIENLRNADGEIVKSYDNRAFVRTMDKLGYKHQGFPVGYDSMSQIRWLSVLDLKDKTEDQLLKEMDYQTRRNIKKTYDIGVKTKTLTIDETQTFFDLFHMAEEKHGFKFRELPYFEEMQKLYDDHAMLKLAYIDLNEYLKTLQLKQQQLTAELSGVEEALEESPNSKKNKTKRTQLEQQLNSNKRKIDNTIEQIEQDGAVLNLASALFIYNEHEVYYLSSGSNPKYNAYMGAYHLQWEMIKFAKAHHIDRYNFYGITGDFSESSEDYGVQQFKKGFNAHVEEYIGDFIKPIKPLLYKVQTYLNHKRR”, the “soluble on expression in E. coli” value is recorded as “not soluble”.

In the case of “MVMEVDEPAVAATTSQNQPQEHANDFDMDTSEGPIENDETFEPVDQINWKFNQVKGNIDADVHTEADVISCVEFSHDGEYLATGDKGGRVVIFQRDQSGKYVKGVRSREYNVYSTFQSHEPEFDYLKSLEIDEKINQIRWLKKKNAANFILSTNDKTIKLWKISERERKIGDDAWNLPRTNRINTSSFRGRLQIPSIVPMELIVEASPRRVYGNAHTYHVNSISVNSDQETFLSADDLRVNLWNLEITNESFNIVDIKPANMEELTEVITAAEFHPTQCNWFVYSSSKGSIRLCDMRDRALCDAYAKIFEEPEDPQSRSFFSEIIASVSDVKFSHNGRYLLTRDYLTVKVWDLNMESQPVETYPVHNYLRTKLCALYENDSIFDKFECDWSGDDKHILTGSYHNLFRSYARGNNQDAKTWEARPQEPHSQLRSRFVVPSAKRKRNNLSSSGETTEEDLSSDQLQFDRKILHTAWHPKDNIIALAATNNLYIFSDV”, the “soluble on expression in E. coli” value was “not soluble”.

On to “MSLVTLKDIAAEAGVSIMTVSNVINGNHSKVSKNTIEKIEKIIQKYNYVPNLTARSLTAKSSKIIGIIVPIKGSFNNLFKDPYISELFGIIQNVVRENGYYLMVRSVKDVSDISALLKNWNMDGAIFLMPDYDNLIYSILKENKLPMVFLDSYSKIDNIISVGINDYKGGYIATRYLINNGHRKILFAGPCHKDGIPIPQIIKRLEGYKDALLESNIEFNESLIVDVEPNYEVGINLGRSICNKEFDVTAVFTTADIMGIGIIEGAKLNGKIVPNDLSVIGFDNLLPSVYVTPKLTTISQDIESKATKAVDLLIEYIEKGSVSNNKITLDVELVERQSVGQLSNEGHHHHHH”, for which the “soluble on expression in E. coli” value is listed as “soluble”.

Consider “MATAADSVYSIESPKAAKSLMLDVVHAGKRLVAVGDRGHILYSDDQGQTWVQAKVPTRQLLTAVYFVDDKRGWAVGHDAQVLASSDGGATWTRQFQDLKREAPLLDVWFKDTQTGYAVGAYGALLETSDGGQHWEDVSDRLDNEDQFHLNAIAQVKDSGLFIVGEQGSMFRSADDGQTWERLEGPYEGSLFGVIGTGQPATLLVYGLRGNLYRSTDFGSTWEQVELNAARGALEFGLSGATLLDDGSLVIVGNGGSVIRSTDHGQTFSVFNRADRISLSAVTAAGNGDLILAGQGGVRVSAATGAELGQLEHHHHHH”, for which the “soluble on expression in E. coli” value is reported as “not soluble”.

Take “LVQGPSLIGIHANEREDIETKKFVNWYLNTKVQWEENSIKTPAEYVADKASYLLPFKNRLNNTNSYNEFVKTAVSQFADKNVTKFAEPADFLSNKVRD”: the “soluble on expression in E. coli” value is given as “not soluble”.

With “RADPDPMKNTCKLLVVADHRFYRYMGRGEESTTTNYLIELIDRVDDIYRNTAWDNAGFKGYGIQIEQIRILKSPQEVKPGEKHYNMAKSYPNEEKDAWDVKMLLEQFSFDIAEEASKVCLAHLFTYQDFDMGTLGLAYVGSPRANSHGGVCPKAYYSPVGKKNIYLNSGLTSTKNYGKTILTKEADLVTTHELGHNFGAEHDPDGLAECAPNEDQGGKYVMYPIAVSGDHENNKMFSQCSKQSIYKTIESKAQECFQERSNKVGSHHHHHH”, the “soluble on expression in E. coli” value is on record as “soluble”.

With “MGSDKIHHHHHHMMTSSEIKRIATYVEKGGVGKTTSAAHIAVAAHNRGHEVLLVDLAGTQNDLATHFGLSIVDEEATDDGVSIDAPISAVFGDDWAFLRDNIDDLLDRMTFPTDEGPDLIPADPGLGGADNNLANVPLEERYQKLDGFVEDLVADKYDLVIFDLPGKEDNIALNGLFAARNVVAPLKPGAFERDQLQKLDATLEEISADLDVDLGLALIIPTIISSQETLSESFVEYVTEEYPEIVGEPVTKTADIGNNQNAGRTLFAVPDDELYATGKRAREAYSANTEQLLSRLTDR”, the “soluble on expression in E. coli” value was “not soluble”.
